Results published in article PMC5919673, “Effector gene birth in plant parasitic nematodes: Neofunctionalization of a housekeeping glutathione synthetase gene” (PLoS Genetics, 2018).

How the values were obtained:
[1] = molecular target: Globodera pallida Clade 2 glutathione synthetase Gpa-GSS5 (Globodera pallida); test: SEC; S200 analytical gel filtration column; purified proteins migrate between the 150 kDa and 75 kDa protein standards, at a mass consistent with a homodimer (50 kDa per subunit)
[2] = molecular target: Globodera pallida Clade 3 GS-like effector Gpa-GSS24 (Globodera pallida); test: as above
[3] = molecular target: Solanum tuberosum glutathione synthetase St-GSS1 (Solanum tuberosum); test: as above
[4] = molecular target: Globodera pallida Clade 1 glutathione synthetase Gpa-GSS1 (Globodera pallida); test: as above
[5] = molecular target: Globodera pallida Clade 3 GS-like effector Gpa-GSS17 (Globodera pallida); test: as above
[6] = molecular target: Globodera pallida Clade 3 GS-like effector Gpa-GSS12 (Globodera pallida); test: as above
[7] = molecular target: Globodera pallida Clade 3 GS-like effector Gpa-GSS22 (Globodera pallida); test: as above
[8] = molecular target: Globodera pallida Clade 3 GS-like effector Gpa-GSS30 (Globodera pallida); test: as above
[9] = molecular target: T1, Gpa-GSS1 (Globodera pallida, UniProt A0A183BS86); test: malachite green phosphate release from ATP; type: biochemical; conditions: glycine, 20 mM MgCl2, 5 mM DTT, 100 mM HEPES pH 7.5, 30 °C
T1 construct: full-length; His6-SUMO tag cleaved by 3C protease (pOPINS3C); E. coli SHuffle; homodimer, about 50 kDa per subunit

[10] = molecular target: T2, St-GSS1 (Solanum tuberosum, UniProt M1CSC4); test: malachite green phosphate release from ATP; type: biochemical; conditions: glycine, 20 mM MgCl2, 5 mM DTT, 100 mM HEPES pH 7.5, 30 °C
T2 construct: gene LOC102589405; His6-SUMO tag cleaved by 3C protease (pOPINS3C); E. coli SHuffle; homodimer, about 50 kDa per subunit
T2 sequence (M1CSC4 1-483): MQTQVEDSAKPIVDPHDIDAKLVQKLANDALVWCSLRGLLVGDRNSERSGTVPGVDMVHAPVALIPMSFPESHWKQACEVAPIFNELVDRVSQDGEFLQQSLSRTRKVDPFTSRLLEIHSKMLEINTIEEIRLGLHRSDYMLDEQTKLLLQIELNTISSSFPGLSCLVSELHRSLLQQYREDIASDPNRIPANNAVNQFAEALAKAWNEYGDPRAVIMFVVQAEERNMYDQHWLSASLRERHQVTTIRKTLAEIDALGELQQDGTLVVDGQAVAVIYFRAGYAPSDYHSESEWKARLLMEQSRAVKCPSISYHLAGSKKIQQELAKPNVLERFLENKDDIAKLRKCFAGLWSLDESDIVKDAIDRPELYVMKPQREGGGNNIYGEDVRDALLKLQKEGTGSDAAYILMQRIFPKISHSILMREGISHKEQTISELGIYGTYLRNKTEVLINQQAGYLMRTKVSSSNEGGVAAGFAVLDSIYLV

**Q.** Which stoichiometry N [1] does the source give for “Globodera pallida Clade 2 glutathione synthetase Gpa-GSS5 (enzyme)” here?
**A.** Its stoichiometry N is 2.

**Q.** “Globodera pallida Clade 3 GS-like effector Gpa-GSS24 (natural protein)” was tested. Which stoichiometry N [2] did it give?
**A.** Its stoichiometry N is 2.

**Q.** How did the stoichiometry N [3] turn out when “Solanum tuberosum glutathione synthetase St-GSS1 (enzyme)” was run?
**A.** Its stoichiometry N is 2.

**Q.** Which stoichiometry N [4] does the source give for “Globodera pallida Clade 1 glutathione synthetase Gpa-GSS1 (enzyme)” here?
**A.** Its stoichiometry N is 2.

**Q.** How did the stoichiometry N [5] turn out when “Globodera pallida Clade 3 GS-like effector Gpa-GSS17 (natural protein)” was run?
**A.** Its stoichiometry N is 2.

**Q.** “Globodera pallida Clade 3 GS-like effector Gpa-GSS12 (natural protein)” was tested. Which stoichiometry N [6] did it give?
**A.** The stoichiometry N was 2.

**Q.** “Globodera pallida Clade 3 GS-like effector Gpa-GSS22 (natural protein)” was tested. Which stoichiometry N [7] did it give?
**A.** The stoichiometry N was 2.

**Q.** “Globodera pallida Clade 3 GS-like effector Gpa-GSS30 (natural protein)” was tested. Which stoichiometry N [8] did it give?
**A.** The stoichiometry N was 2.

**Q.** `N[C@@H](CCC(=O)N[C@@H](CS)C(=O)O)C(=O)O` [γ-EC] was tested. Which Km [9] did it give?
**A.** Its Km is “The Km for γ-EC for canonical GS enzymes”.

**Q.** And the Km [10]?
**A.** Its Km is “The Km for γ-EC for canonical GS enzymes”.
